Residue numbers refer to the chain shown, from its start. Where two headings read alike, the source gives them in different places. Values belong to the binder of their own block, whether it stands above or below them.
Legend:
Test in all cases: SPR (Biacore T100): antibody captured on Protein A, GST-FND1 as analyte
[1] = biological target: T1, Human recombinant AXL-FND1 (GST-FND1), from pET-41b(+) (human, UniProt P30530 225-331)
T1 construct: Expressed in E. coli, purified on Glutathione Sepharose; analyte in all Biacore measurements; GST put first by the usual layout of pET-41; not shown: GST-tag of vector pET-41b(+) (Novagen)
T1 sequence (looked up): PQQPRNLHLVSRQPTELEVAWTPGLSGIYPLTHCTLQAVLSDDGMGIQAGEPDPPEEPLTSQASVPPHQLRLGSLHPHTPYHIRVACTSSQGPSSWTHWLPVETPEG
Protocol: (§1) Kinetic analyses of antigen-antibody reactions of humanized AXL antibodies were carried out using Biacore T100 (BIACORE). rec-Protein A (Zymed) (hereinafter, Protein A) was immobilized onto a sensor chip, various antibodies were bound to it, then an antigen as the analyte was flushed to measure the antibody-antigen interaction. Human recombinant AXL-FND1 (prepared in 2-2; hereinafter referred to as GST-FND1) prepared at various concentrations was used as the antigen. From the sensorgrams obtained through the measurements, kinetic parameters, namely binding rate constant kₐ (1/Ms) and dissociation rate constant kd (1/s), were calculated, and Kd (M) was calculated based on these values. Biacore T100 Evaluation Software (BIACORE) was used to calculate each of the parameters.
(§2) The sensor chips were produced by immobilizing approximately 3000 RU of Protein A onto CM5 (BIACORE) by amine coupling. Using the produced sensor chip, kinetic analyses were carried out on the interaction between the Protein A-bound antibodies and GST-FND1. HBS-EP+ was used as the running buffer, and the flow rate was set to 30 μL/min. Each antibody was prepared at 1 μg/mL using the running buffer, and was subjected to binding with Protein A for two minutes. GST-FND1 as the analyte was prepared at 0.5 and 2.0 μg/mL using HBS-EP+. […]

[2] = biological target: T1, Human recombinant AXL-FND1 (GST-FND1), …; remark: listed apart in the source
Protocol: as §1, §2

[3] = biological target: T1, Human recombinant AXL-FND1 (GST-FND1), …; remark: listed apart in the source
Outline: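 Antibodies (1 μg/mL) were captured for 2 min on a Protein A CM5 chip. GST-FND1 (0.5 and 2.0 μg/mL) in HBS-EP+ was flowed at 30 μL/min with 2 min association and 2 min dissociation at 25° C. ka and kd were fitted from sensorgrams and Kd was calculated from them.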

[4] = biological target: T1, Human recombinant AXL-FND1 (GST-FND1), …; remark: listed apart in the source
Protocol: as §1
The sensor chips were produced by immobilizing approximately 3000 RU of Protein A onto CM5 (BIACORE) by amine coupling. Using the produced sensor chip, kinetic analyses were carried out on the interaction between the Protein A-bound antibodies and GST-FND1. HBS-EP+ was used as the running buffer, and the flow rate was set to 30 μL/min. Each antibody was prepared at 1 μg/mL using the running buffer, and was subjected to binding with Protein A for two minutes. GST-FND1 as the analyte was prepared at 0.5 and 2.0 μg/mL using HBS-EP+. Measurements were carried out by first binding the various humanized AXL antibodies, chimeric AXL antibodies, or mouse AXL antibodies of interest to Protein A, then applying an analyte solution to them for a two-minute interaction, and then switching to HBS-EP+ (BIACORE) for a two-minute measurement of the dissociation phase. After completion of measurement of the dissociation phase, 30 μL of 10 mM glycine-HCl (pH 2.0) was used for washing to regenerate the sensor chip. Such binding, dissociation, and regeneration were defined as one cycle of analysis. All experiments were performed at 25° C.
Affinity measurements on the produced variants were carried out by the method of Example 2.

- Kd [1]: 1.59 nM
B1: chH/L0 (antibody, V domains shown, not shown: a dimerising Fc or GST)
VH: QVQLKQSGPGLVAPSQSLSITCTVSGLSLTSFGVDWVRQSPGKGLEWLGVIWGGGSTNYNSALKSRLSISKDNSKSQVFLKMNSLQTDDTAMYYCAGEGSKYGAWFAYWGQGTLVTVSA
VL: DVVMTQSPLSLPVTLGQPASISCRSSQNIVHTNGNTYLEWYQQKPGKAPELLIYKVSNRFSGVPDRFSGSGSGTDFTLKISRVEAEDVGVYYCFQGSHIPFTFGQGTKLEIKR
notes: Chimeric H chain with humanized L chain

- Kd [2]: 4.44 nM
B2: H0/L0 (antibody, human IgG1, kappa, V domains shown)
VH: QVTLKESGPVLVKPTETLTLTCTVSGFSLSSFGVDWVRQAPGKGLEWMGVIWGGGSTNYNSALKSRLTISKDTSKSQVVLTMTNMDPVDTATYYCAGEGSKYGAWFAYWGQGTLVTVSS
VL: B1 VL
notes: Humanized Ax225; IgG1 constant region without G446 and K447 (EU), natural human kappa

- Kd [1]: 12.3 nM
B3: H6/L0 (antibody, V domains shown, not shown: a dimerising Fc or GST)
VH: B1 VH with G97R
VL: B1 VL
notes: H6 is chH with arginine for glycine at Kabat position 94

- Kd [3]: 3.58 nM
- Kd [2]: 3.58 nM
- Kd [4]: 3.58 nM
B4: H9/L0 (antibody, human IgG1, kappa)
heavy: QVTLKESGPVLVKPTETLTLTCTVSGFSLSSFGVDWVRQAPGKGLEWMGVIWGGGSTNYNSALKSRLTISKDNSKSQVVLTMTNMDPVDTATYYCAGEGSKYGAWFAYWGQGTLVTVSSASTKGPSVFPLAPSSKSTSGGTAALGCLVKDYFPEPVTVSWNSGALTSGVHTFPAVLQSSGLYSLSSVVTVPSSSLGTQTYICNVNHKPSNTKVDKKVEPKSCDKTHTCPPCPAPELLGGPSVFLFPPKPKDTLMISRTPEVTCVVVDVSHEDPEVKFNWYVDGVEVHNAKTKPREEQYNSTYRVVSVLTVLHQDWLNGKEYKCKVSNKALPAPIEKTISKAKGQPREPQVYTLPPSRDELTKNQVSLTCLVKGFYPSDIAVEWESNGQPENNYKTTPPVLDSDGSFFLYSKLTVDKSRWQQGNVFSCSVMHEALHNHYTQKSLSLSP
light: DVVMTQSPLSLPVTLGQPASISCRSSQNIVHTNGNTYLEWYQQKPGKAPELLIYKVSNRFSGVPDRFSGSGSGTDFTLKISRVEAEDVGVYYCFQGSHIPFTFGQGTKLEIKRTVAAPSVFIFPPSDEQLKSGTASVVCLLNNFYPREAKVQWKVDNALQSGNSQESVTEQDSKDSTYSLSSTLTLSKADYEKHKVYACEVTHQGLSSPVTKSFNRGEC
notes: also called humanized Ax225 antibody (H9/L0)
